In patent US20050124794A1 (published 2005):
Ends that are not written are not given here. * marks the point of attachment. Fmoc = O=C(OCC1c2ccccc2-c2ccccc21)*

B1: Recombinant HKa domain 5 (HKa D5) (ligand)
chain: VSPPHTSMAPAQDEERDSGKEQGHTRRHDWGHEKQRKHNLGHGHKHERDQGHGHQRGHGLGHGHEQQHGLGHGHKFKLDDDLEHQGGHVLDHGHKHKHGHGHGKHKNKGKKNGKHNGWKTEHLAS
notes: also called HK-D5; D5 domain of HKa

How the values were obtained:
[1] = biological target: T1, Chicken gizzard tropomyosin (Tpm), purified (chicken); assay: displacement of 10 nM biotin-HKa from immobilized chicken gizzard Tpm, 10 µM ZnCl2
T1 construct: Bought from Sigma and coated on 96-well plates; also called purified Tpm; immobilized Tpm
T1 sequence (chain, as listed by the source limits assumed): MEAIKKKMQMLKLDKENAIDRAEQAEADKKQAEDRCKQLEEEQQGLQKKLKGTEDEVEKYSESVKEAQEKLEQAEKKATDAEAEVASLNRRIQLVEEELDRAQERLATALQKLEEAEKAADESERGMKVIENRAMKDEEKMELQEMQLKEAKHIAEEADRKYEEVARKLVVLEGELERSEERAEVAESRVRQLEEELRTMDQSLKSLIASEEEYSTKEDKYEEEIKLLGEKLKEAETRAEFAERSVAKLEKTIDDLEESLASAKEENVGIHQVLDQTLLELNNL
Method: The IC₅₀ for the displacement of biotinylated-HKa for the peptides shown in Table 5 was determined as follows: 10 nM biotin-HKa is added to a 96 well plate previously coated with 200 ng of chicken gizzard Tpm in the presence of 10 μM ZnCl₂. Increasing amounts of the peptides are added to the wells. The remaining biotin-HKa bound to Tpm was detected using avidin-HRP and a chromogenic substrate. A Kd was determined by non-linear regression analysis of the empirical data. The effect on the Matrigel Plug assay was determined as follows: Matrigel (0.5 mL) containing 400 ng/ml of bFGF, 50 μg/ml heparin with or without the peptide (300 μM) or saline buffer are injected in the flanks of a mouse. After five days, the plugs are removed and the plugs scanned.

[2] = biological target: T1, Chicken gizzard tropomyosin (Tpm), …; assay: competition ELISA against 10 nM biotin-HKa on immobilized chicken gizzard Tpm, 10 uM ZnCl2
[3] = biological target: T1, Chicken gizzard tropomyosin (Tpm), …; assay: inhibition of binding of 20 nM biotin-HKa to purified immobilized chicken gizzard Tpm; competition against 20 nM biotin-HKa
Method: FIGS. 7A-7C show specific binding of HKa to purified immobilized Tpm and its inhibition. […] Plates were incubated with increasing concentrations of biotin-HKa in the absence or presence of 10 μM Zn²⁺. […] The IC₅₀ for this inhibition was about 8.1 nM.

[4] = biological target: T1, Chicken gizzard tropomyosin (Tpm), …; assay: competition with 10 nM biotin-HKa on plate coated with 200 ng chicken gizzard Tpm, 10 µM ZnCl2
Method: 10 nM biotin-HKa was added to a 96 well plate previously coated with 200 ng of chicken gizzard Tpm in the presence of 10 μM ZnCl₂. Increasing amounts of HK-D5, HPRG-H/P domain or endostatin were added to the wells. Bound biotin-HKa was detected and Kd was calculated as for FIG. 10.
Binding to immobilized Tpm is carried out either by a competition assay with a known ligand, biotin-HKa, or by direct binding of the corresponding biotinylated protein. Plates are coated at room temperature with chicken gizzard Tpm (Sigma) in Tris buffer-saline (TBS) (200 ng/well). After incubation for 2 hours, wells are washed with TBS, then 1% BSA/TBS/Tween-20 is added to each well and incubate at 37° C. for two hours. HKa (Enzyme Laboratories) that had been previously biotinylated with EZ-Link (Pierce) according to the manufacturers instructions, is added to the plate at a concentration of 10 nM together with ZnCl₂ (10 μM) and the appropriate concentration of the protein, domain or peptide competitor. The plates are incubated at room temperature and then washed with TBS/Tween-20. Avidin-HRP is added, incubated for 20 minutes at room temperature, washed with TBS/Tween-20 and the chromogenic substrate is added. The reaction is stopped with sulfuric acid and the plate read at 490 nm.

[5] = biological target: T1, Chicken gizzard tropomyosin (Tpm), …; assay: displacement of 10 nM biotin-HKa from immobilized chicken gizzard Tpm, 10 µM ZnCl2; remark: listed apart in the source
Method: The N-terminus of the pentapeptide HHPHG has been derivatized (capped) in an attempt to increase the pentapeptides' affinity to Tpm by increasing productive molecular contacts (or interactions). […] The IC₅₀ for the displacement of biotinylated-HKa for the capped peptides shown in the table was determined as follows: 10 nM biotin-HKa was added to a 96 well plate previously coated with 200 ng of chicken gizzard Tpm in the presence of 10 μM ZnCl₂. Increasing amounts of the peptides were added to the wells. The remaining biotin-HKa bound to Tpm was detected using avidin-HRP and a chromogenic substrate. A Kd was determined by non-linear regression analysis of the empirical data

[6] = biological target: T1, Chicken gizzard tropomyosin (Tpm), …; assay: binding to Tpm in vitro; assay not detailed
[7] = biological target: B1; assay: chymotryptic digest of chicken gizzard Tpm on HK-D5-Sepharose in TBS with 10 uM ZnCl2, elution with 2 M NaCl, SDS-PAGE
Method: Chicken gizzard Tpm (0.4 mg/ml) was incubated with 5 μg/ml chymotrypsin in TBS pH 7.5 at 37° C. and aliquots were taken at the indicated times. SDS-PAGE sample buffer was added and the sample heated at 80° C. for 4 minutes and then loaded onto and run on a 10% NuPage gel (Invitrogen).
Chicken gizzard Tpm was partially digested with Chymotrypsin as described for FIG. 19 for 100 minutes so that a 20 kDa fragment was enriched. HK-D5 had previously immobilized in an activated Sepharose (CNBr-activated Sepharose 4 B, Amersham Biosciences). The chymotryptic fragments were incubated with the HK-D5-Sepharose resin in TBS containing 10 μM ZnCl₂, washed extensively in the same buffer and eluted in 2 M NaCl. The samples were run in a 10% NuPage gel (Invitrogen).

Row | Binder | IC50 [1] [µM] | IC50 [5] [µM] | other results
1 | TRRHDWGH [ATN232] | 140 | – | –
2 | B1 | – | – | IC50 (read off the curve) [2]: ~0.002 µM; IC50 [3]: ~0.0081 µM; fold higher affinity than endostatin [4]: ~1000 fold
3 | {3‑(1-adamantyl)propanoyl}-HHPHG [ATN-281.000.01 (3-(1-adamantyl)propanoyl N-capped HHPHG)] | – | 59 | –
4 | HHPHG (not fully specified (N-terminus)) [ATN-275.000.01 ((1S)-(+)-camphorsulphonyl N-capped HHPHG)] | – | 30 | –
5 | HHPHG (Synthetic pentapeptide; also called HHPHG) [ATN230] | 121 | – | –
6 | AHPHG [AHPHG (Ala substituted mutant of HHPHG)] | – | – | binding result [6]: no binding
7 | HPPHG (also called HPPHG) [ATN228] | 150 | – | –
8 | {4‑Chlorobenzyl}-HHPHG [ATN-276.000.01 (4-Chlorobenzyl N-capped HHPHG)] | – | 23 | –
9 | HKNKGKKN [ATN16] | 99.5 | – | –
10 | Fmoc-HHPHG (The text says the N-terminus of the pentapeptide HHPHG was capped) [ATN-278.000.01 (Fmoc N-capped HHPHG)] | – | 55 | –
11 | Histidine-Proline rich (H/P) domain of HPRG (ligand, also called HPRG-H/P; HPRG-H/P domain) SVNIIHRPPPHGHHPHGPPPHGHHPHGPPPHGHPPHGPPPRHPPHGPPPHGHPPHGPPPHGHPPHGPPPHGHPPHGPPPHGHPPHGHGFHDHGPCDPPSHK | – | – | fold higher affinity than endostatin [4]: ~1000 fold
12 | Antiangiogenic Ligand-Binding Polypeptide (AALBP), chymotryptic fragment of chicken gizzard Tpm cTPM1 (other) not shown | – | – | binding result [7]: binds
